Tests used:
[1] = biological target: Biotinylated green fluorescent protein (biotin-GFP); experiment: native-PAGE, dissociation under excess biotin, 37 °C, 10 h
[2] = biological target: Biotinylated green fluorescent protein (biotin-GFP); experiment: native-PAGE, dissociation under excess biotin, 23 °C, 10 h
[3] = biological target: Biotinylated green fluorescent protein (biotin-GFP); experiment: native-PAGE, dissociation under excess biotin, 45 °C, 10 h

percent of biotin conjugate dissociated after 10 h [1]: 16% | percent of biotin conjugate dissociated after 10 h [2]: 6.8% | percent of biotin conjugate dissociated after 10 h [3]: 32%
Substance: Neutravidin (NA) (from UniProt P02701 25-152)
